In patent publication US20160237160A1, “ANTI-TWEAKR ANTIBODIES AND USES THEREOF” (BAYER PHARMA AKTIENGESELLSCHAFT, priority 2013, published 2016):

Legend:
[1] = molecular target: T1, TWEAKR(28-68)-HIS (TPP-1984) (Homo sapiens, UniProt Q9NP84); assay: ELISA with C-terminally truncated TWEAKR ectodomain; format: binding; details: coating 1 μg/ml; 0.08 and 0.3 μg/ml biotinylated IgG
T1 construct: Extracellular domain with C-terminal truncation (28-68) fused to HIS6 tag; made in house
Experimental: (§1) To analyze for binding, 1 μg/ml of the respective dimeric TWEAKR-Fc construct were coated and, 0.3 μg/ml and 0.08 μg/ml of biotinylated IgG were used as soluble binding partner. Detection was done with Streptavidin-HRP and Amplex-Red substrate. IgGs were biotinylated using an approximately 2-fold molar excess of biotin-LC-NHS (Pierce; Cat. No. 21347) according to manufacturer's instructions and desalted using Zeba desalting columns (Pierce; Cat. No. 89889).

[2] = molecular target: T2, TWEAKR protein (TPP-2305) (Homo sapiens, UniProt Q9NP84); assay: Biacore monovalent KD with TWEAKR protein; format: binding; details: first order 1:1 binding model
T2 construct: TPP-2305; hTNFRSF12Aaa28-80; Human; 30R-AT080; 168; purchased Fitzgerald Inc 30R-AT080
Experimental: Binding affinities of anti-TWEAKR antibodies were determined by surface plasmon resonance analysis on a Biacore T100 instrument (GE Healthcare Biacore, Inc.). Antibodies were immobilized onto a CM5 sensor chip through an indirect capturing reagent, anti-human IgG(Fc). Reagents from the “Human Antibody Capture Kit” (BR-1008-39, GE Healthcare Biacore, Inc.) were used as described by the manufacturer. Anti-TWEAKR antibodies were injected at a concentration of 10 μg/ml at 10 μl/min for 10 sec.
Sensorgrams were generated after in-line reference cell correction followed by buffer sample subtraction. The dissociation equilibrium constant (KD) was calculated based on the ratio of association (kon) and dissociation rated (koff) constants, obtained by fitting sensorgrams with a first order 1:1 binding model.

[3] = molecular target: T3, TWEAKR-Fc mutein M50A (TPP-1988) (Homo sapiens, UniProt Q9NP84, M50A); assay: ELISA mutein binding; details: coating 62 ng/ml; biotinylated IgG from 100 nM; read-out: IC50 of antibody binding, M50A
T3 construct: the full ectodomain (amino acids 28-80) with the following single amino acid substitutions; made in house
Experimental: (§2) Therefore, the full ectodomain (amino acids 28-80) with the following single amino acid substitutions were expressed and purified as Fc fusion proteins: T33Q; S40R; W42A; M50A; R56P; H60K; L65Q.
(§3) To collect dose-response data, the different TWEAKR-Fc muteins were coated with a low concentration (62 ng/ml) in a 384-well Maxisorb ELISA plate and a serial 2fold dilution of biotinylated IgG starting with a concentration of 100 nM was used as soluble binding partner. Detection was done with Streptavidin-HRP and Amplex Red.
(§4) IgGs were biotinylated using an approximately 2-fold molar excess of biotin-LC-NHS (Pierce; Cat. No. 21347) according to manufacturer's instructions and desalted using Zeba desalting columns (Pierce; Cat. No. 89889). The dose-response data were fitted and IC50s determined.

[4] = molecular target: T4, TWEAKR-Fc mutein S40R (TPP-1987) (Homo sapiens, UniProt Q9NP84, S40R); assay: ELISA mutein binding; details: coating 62 ng/ml; biotinylated IgG from 100 nM; read-out: IC50 of antibody binding, S40R
T4 construct: the full ectodomain (amino acids 28-80) with the following single amino acid substitutions; made in house
Experimental: as §2, §3, §4

TWEAKR-Fc WT (TPP-599) = molecular target: T5, TWEAKR-Fc WT (TPP-599) (Homo sapiens, UniProt Q9NP84); assay: ELISA mutein binding; details: coating 62 ng/ml; biotinylated IgG from 100 nM; read-out: IC50 of antibody binding, WT
T5 construct: TPP-599; HUMAN-TNFRSF12Aaa28-80-hIgG1-Fc; 138; made in house
Experimental: as §2, §3, §4

[5] = molecular target: T6, TWEAKR-Fc mutein R56P (TPP-2683) (Homo sapiens, UniProt Q9NP84, R56P); assay: ELISA mutein binding; details: coating 62 ng/ml; biotinylated IgG from 100 nM; read-out: IC50 of antibody binding, R56P
T6 construct: the full ectodomain (amino acids 28-80) with the following single amino acid substitutions; made in house
Experimental: as §2, §3, §4

[6] = molecular target: T7, TWEAKR-Fc mutein T33Q (TPP-1986) (Homo sapiens, UniProt Q9NP84, T33Q); assay: ELISA mutein binding; details: coating 62 ng/ml; biotinylated IgG from 100 nM; read-out: IC50 of antibody binding, T33Q
T7 construct: the full ectodomain (amino acids 28-80) with the following single amino acid substitutions; made in house
Experimental: as §2, §3, §4

[7] = molecular target: T8, TWEAKR-Fc mutein H60K (TPP-1989) (Homo sapiens, UniProt Q9NP84, H60K); assay: ELISA mutein binding; details: coating 62 ng/ml; biotinylated IgG from 100 nM; read-out: IC50 of antibody binding, H60K
T8 construct: the full ectodomain (amino acids 28-80) with the following single amino acid substitutions; made in house
Experimental: as §2, §3, §4

[8] = molecular target: T9, TWEAKR-Fc mutein L65Q (TPP-1990) (Homo sapiens, UniProt Q9NP84, L65Q); assay: ELISA mutein binding; details: coating 62 ng/ml; biotinylated IgG from 100 nM; read-out: IC50 of antibody binding, L65Q
T9 construct: the full ectodomain (amino acids 28-80) with the following single amino acid substitutions; made in house
Experimental: as §2, §3, §4

[9] = molecular target: T10, TWEAKR-Fc mutein W42A (TPP-1985) (Homo sapiens, UniProt Q9NP84, W42A); assay: ELISA mutein binding; details: coating 62 ng/ml; biotinylated IgG from 100 nM; read-out: IC50 of antibody binding, W42A
T10 construct: the full ectodomain (amino acids 28-80) with the following single amino acid substitutions; made in house
Experimental: as §2, §3, §4

[10] = molecular target: T11, TWEAKR-Fc fusion protein (TPP-2202), aa 28-80 (Homo sapiens, UniProt Q9NP84); assay: ELISA with TWEAKR full ectodomain; format: binding; details: coating 1 μg/ml; 0.08 and 0.3 μg/ml biotinylated IgG
T11 construct: the full ectodomain 28-80 including the N- and C-terminus; made in house
Excerpt: (§5) In a first approach to characterize the binding epitope of the aforementioned antibodies, a N- and C-terminal truncation mutant of the TWEAKR ectodomain was generated and tested for its ability to bind to the different anti-TWEAKR antibodies. N-terminally, amino acids 28 to 33 and C-terminally amino acids 69 to 80 were deleted, thus the cysteine rich domain with disulfide bridges between Cys36-Cys49, Cys52-Cys67 and Cys55-Cys64 remains intact (compare FIG. 2). Both constructs, the full ectodomain 28-80 including the N- and C-terminus and the truncated ectodomain 34-68 were expressed and purified as Fc fusion proteins TPP-2202 and TPP-2203, respectively.
as §1

[11] = molecular target: T12, TWEAKR(34-68)-Fc fusion protein (TPP-2203) (Homo sapiens, UniProt Q9NP84); assay: ELISA with TWEAKR cysteine rich domain; format: binding; details: coating 1 μg/ml; 0.08 and 0.3 μg/ml biotinylated IgG
T12 construct: the truncated ectodomain 34-68 were expressed and purified as Fc fusion proteins; made in house
Excerpt: as §5, §1

B1: P3G5(TPP-2195): reference anti-TWEAKR antibody, murine IgG2a, from WO2009/140177; SEQ ID NO 121/122 (protein)
light: DIVLTQSPASLAVSLGQRATISCRANKSVSTSSYSYMHWYQQKPGQPPKLLIKYASNLESGVPARFSGSGSGTDFILNIHPVEEEDAATYYCQHSRELPFTFGSGTKLEIKRADAAPTVSIFPPSSEQLTSGGASVVCFLNNFYPKDINVKWKIDGSERQNGVLNSWTDQDSKDSTYSMSSTLTLTKDEYERHNSYTCEATHKTSTSPIVKSFNRNEC
heavy: QVQLQQSGPEVVRPGVSVKISCKGSGYTFTDYGIHWVKQSHAKSLEWIGVISTYNGYTNYNQKFKGKATMTVDKSSSTAYMELARLTSEDSAIYYCARAYYGNLYYAMDYWGQGTSVTVSSAKTTAPSVYPLAPVCGDTTGSSVTLGCLVKGYFPEPVTLTWNSGSLSSGVHTFPAVLQSDLYTLSSSVTVTSSTWPSQSITCNVAHPASSTKVDKKIEPRGPTIKPCPPCKCPAPNLLGGPSVFIFPPKIKDVLMISLSPIVTCVVVDVSEDDPDVQISWFVNNVEVHTAQTQTHREDYNSTLRVVSALPIQHQDWMSGKEFKCKVNNKDLPAPIERTISKPKGSVRAPQVYVLPPPEEEMTKKQVTLTCMVTDFMPEDIYVEWTNNGKTELNYKNTEPVLDSDGSYFMYSKLRVEKKNWVERNSYSCSVVHEGLHNHHTTKSFSRTPG
modifications: Mus Musculus
- ELISA binding to C-terminally truncated ectodomain (28-68) [1]: impaired binding
- ka [2]: 2.31e+06 M⁻¹ s⁻¹
- kd [2]: 0.00122 s⁻¹
- IC50 [3]: 1 to 150 pM
- IC50 [4]: 1 to 150 pM
- IC50 (TWEAKR-Fc WT (TPP-599)): 1 to 150 pM
- IC50 [5]: 1 to 150 pM
- IC50 [6]: 1 to 150 pM
- IC50 [7]: 1 to 150 pM
- IC50 [8]: 1 to 150 pM
- IC50 [9]: > 50000 pM
- ELISA binding to full ectodomain (28-80) [10]: saturated binding
- ELISA binding to N- and C-terminally truncated construct (34-68) [11]: impaired binding
